The test addresses HuM7AIQ2 heavy chain, wild-type (human myosin VIIa Met1-Arg796, motor domain plus two IQ motifs) (human) (UniProt Q13402). The test is described as follows: co-purification on anti-FLAG resin, SDS-PAGE densitometry.

The record followed here is PMC2821024.

Sequence of UniProt Q13402 (Q13402 1-796): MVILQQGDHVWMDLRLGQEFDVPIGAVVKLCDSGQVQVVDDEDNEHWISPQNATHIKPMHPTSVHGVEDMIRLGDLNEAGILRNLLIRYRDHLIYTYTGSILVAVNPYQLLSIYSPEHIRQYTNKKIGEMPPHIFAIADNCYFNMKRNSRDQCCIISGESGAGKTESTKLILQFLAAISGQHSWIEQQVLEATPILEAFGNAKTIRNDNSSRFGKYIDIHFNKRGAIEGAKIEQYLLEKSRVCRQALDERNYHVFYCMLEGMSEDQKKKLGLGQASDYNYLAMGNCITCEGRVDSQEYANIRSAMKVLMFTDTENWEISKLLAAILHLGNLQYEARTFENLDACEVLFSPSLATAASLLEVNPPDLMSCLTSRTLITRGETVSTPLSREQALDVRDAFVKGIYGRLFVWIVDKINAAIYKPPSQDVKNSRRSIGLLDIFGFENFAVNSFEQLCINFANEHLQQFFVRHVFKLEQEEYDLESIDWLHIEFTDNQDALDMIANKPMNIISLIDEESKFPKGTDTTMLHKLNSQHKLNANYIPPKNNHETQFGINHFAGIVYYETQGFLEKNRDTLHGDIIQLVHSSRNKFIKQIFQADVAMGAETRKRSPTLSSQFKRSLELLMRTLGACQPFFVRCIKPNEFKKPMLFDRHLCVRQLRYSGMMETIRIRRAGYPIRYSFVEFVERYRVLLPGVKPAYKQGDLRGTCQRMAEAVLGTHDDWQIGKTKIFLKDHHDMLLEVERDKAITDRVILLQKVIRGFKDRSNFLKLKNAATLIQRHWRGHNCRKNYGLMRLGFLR

As for “calmodulin (from UniProt P0DP23 1-149) (natural protein)”, the stoichiometry N (calmodulin per heavy chain) is 1.53.
